B1: Ska3 (as subunit of the wild-type Ska complex) (natural protein)
chain: MDPIRSFCGKLRSLASTLDCETARLQRALDGEESDFEDYPMRILYDLHSEVQTLKDDVNILLDKARLENQEGIDFIKATKVLMEKNSMDIMKIREYFQKYGYSPRVKKNSVHEQEAINSDPELSNCENFQKTDVKDDLSDPPVASSCISEKSPRSPQLSDFGLERYIVSQVLPNPPQAVNNYKEEPVIVTPPTKQSLVKVLKTPKCALKMDDFECVTPKLEHFGISEYTMCLNEDYTMGLKNARNNKSEEAIDTESRLNDNVFATPSPIIQQLEKSDAEYTNSPLVPTFCTPGLKIPSTKNSIALVSTNYPLSKTNSSSNDLEVEDRTSLVLNSDTCFENLTDPSSPTISSYENLLRTPTPPEVTKIPEDILQLLSKYNSNLATPIAIKAVPPSKRFLKHGQNIRDVSNKEN

Legend:
Test in all cases: cross-linking
[1] = target: T1, Hec1 (as subunit of the wild-type Ndc80 complex) (human, UniProt O14777 1-642)
T1 sequence: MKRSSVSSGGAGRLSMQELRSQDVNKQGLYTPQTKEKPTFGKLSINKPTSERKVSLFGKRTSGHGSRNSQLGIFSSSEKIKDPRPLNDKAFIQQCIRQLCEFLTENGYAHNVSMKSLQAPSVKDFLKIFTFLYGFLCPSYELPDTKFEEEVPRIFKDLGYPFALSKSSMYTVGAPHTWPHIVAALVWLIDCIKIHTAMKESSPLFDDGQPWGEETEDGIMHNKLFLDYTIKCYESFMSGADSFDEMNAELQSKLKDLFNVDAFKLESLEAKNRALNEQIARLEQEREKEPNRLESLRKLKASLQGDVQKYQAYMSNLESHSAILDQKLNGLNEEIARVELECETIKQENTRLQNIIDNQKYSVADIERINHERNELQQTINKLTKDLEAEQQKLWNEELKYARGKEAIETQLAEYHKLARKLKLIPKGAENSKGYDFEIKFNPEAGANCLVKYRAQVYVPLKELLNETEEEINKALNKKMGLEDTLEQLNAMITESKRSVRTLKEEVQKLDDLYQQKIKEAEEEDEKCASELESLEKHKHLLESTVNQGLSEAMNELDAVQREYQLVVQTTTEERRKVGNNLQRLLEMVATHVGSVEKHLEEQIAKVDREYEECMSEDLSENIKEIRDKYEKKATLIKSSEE

[2] = target: T2, Nuf2 (as subunit of the wild-type Ndc80 complex) (human, UniProt Q9BZD4 1-464)
T2 sequence: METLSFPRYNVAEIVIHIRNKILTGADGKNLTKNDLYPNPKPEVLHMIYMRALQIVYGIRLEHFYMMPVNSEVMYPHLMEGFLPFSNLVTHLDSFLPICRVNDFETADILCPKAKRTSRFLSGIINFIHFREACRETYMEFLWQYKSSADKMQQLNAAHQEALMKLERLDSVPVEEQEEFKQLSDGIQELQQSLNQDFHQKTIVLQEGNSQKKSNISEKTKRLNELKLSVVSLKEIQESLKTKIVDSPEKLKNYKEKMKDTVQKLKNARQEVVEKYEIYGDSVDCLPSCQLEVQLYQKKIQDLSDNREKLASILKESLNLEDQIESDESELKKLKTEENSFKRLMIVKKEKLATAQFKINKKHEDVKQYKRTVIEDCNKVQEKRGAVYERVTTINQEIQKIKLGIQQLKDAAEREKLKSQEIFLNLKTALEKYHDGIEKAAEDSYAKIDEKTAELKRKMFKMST

[3] = target: B1
[4] = target: human Ndc80 complex (Hec1, Nuf2, Spc24-His, Spc25), wild type (human, UniProt O14777;Q9BZD4;Q8NBT2;Q9HBM1)

Which results are given for B1?
binding result [1]: binds; binding result [2]: binds

B2: Spc24-His (as subunit of the wild-type Ndc80 complex) (natural protein)
chain: MAAFRDIEEVSQGLLSLLGANRAEAQQRRLLGRHEQVVERLLETQDGAEKQLREILTMEKEVAQSLLNAKEQVHQGGVELQQLEAGLQEAGEEDTRLKASLLQLTRELEELKEIEADLERQEKEVDEDTTVTIPSAVYVAQLYHQVSKIEWDYECEPGMVKGIHHGPSVAQPIHLDSTQLSRKFISDYLWSLVDTEW
Does B2 bind [3]?
Result: binds

B3: Spc25 (as subunit of the wild-type Ndc80 complex) (natural protein)
chain: MVEDELALFDKSINEFWNKFKSTDTSCQMAGLRDTYKDSIKAFAEKLSVKLKEEERMVEMFLEYQNQISRQNKLIQEKKDNLLKLIAEVKGKKQELEVLTANIQDLKEEYSRKKETISTANKANAERLKRLQKSADLYKDRLGLEIRKIYGEKLQFIFTNIDPKNPESPFMFSLHLNEARDYEVSDSAPHLEGLAEFQENVRKTNNFSAFLANVRKAFTATVYN
Does B3 bind [3]?
Result: binds

B4: Ska complex^(Ska1 ΔMTBD) (full length Ska2 and Ska3 with Ska1 residues 1-131), without His-tag (complex)
chain 1: MASSDLEQLCSHVNEKIGNIKKTLSLRNCGQEPTLKTVLNKIGDEIIVINELLNKLELEIQYQEQTNNSLKELCESLEEDYKDIEHLKENVPSHLPQVTVTQSCVKGSDLDPEEPIKVEEPEPVKKPPKEQ
chain 2: MEAEVDKLELMFQKAESDLDYIQYRLEYEIKTNHPDSASEKNPVTLLKELSVIKSRYQTLYARFKPVAVEQKESKSRICATVKKTMNMIQKLQKQTDLELSPLTKEEKTAAEQFKFHMPDL
chain 3: MDPIRSFCGKLRSLASTLDCETARLQRALDGEESDFEDYPMRILYDLHSEVQTLKDDVNILLDKARLENQEGIDFIKATKVLMEKNSMDIMKIREYFQKYGYSPRVKKNSVHEQEAINSDPELSNCENFQKTDVKDDLSDPPVASSCISEKSPRSPQLSDFGLERYIVSQVLPNPPQAVNNYKEEPVIVTPPTKQSLVKVLKTPKCALKMDDFECVTPKLEHFGISEYTMCLNEDYTMGLKNARNNKSEEAIDTESRLNDNVFATPSPIIQQLEKSDAEYTNSPLVPTFCTPGLKIPSTKNSIALVSTNYPLSKTNSSSNDLEVEDRTSLVLNSDTCFENLTDPSSPTISSYENLLRTPTPPEVTKIPEDILQLLSKYNSNLATPIAIKAVPPSKRFLKHGQNIRDVSNKEN
Does B4 bind [4]?
Result: binds

Source: doi:10.1101/245167 (bioRxiv, 2018)
